In article PMC2887947 one finds binding signal, binding result and Kd data, which are given here for five molecules.

Read-outs that look alike come from different tables or passages of the source.

Holding throughout (test): EMSA
For series [1], the target named is T1, M. tuberculosis H-NS (Mycobacterium tuberculosis H37Rv, UniProt I6YHB0 1-134).
T1 sequence: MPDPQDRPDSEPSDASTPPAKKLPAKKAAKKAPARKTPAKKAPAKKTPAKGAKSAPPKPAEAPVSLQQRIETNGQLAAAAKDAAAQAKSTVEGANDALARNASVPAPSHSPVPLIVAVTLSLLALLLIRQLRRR

Series [2] deals with T1, M. tuberculosis H-NS. The source holds these as a separate data set.
The target in series [3] is T2, E. coli H-NS (Escherichia coli, UniProt P0ACF8 1-137).
T2 sequence: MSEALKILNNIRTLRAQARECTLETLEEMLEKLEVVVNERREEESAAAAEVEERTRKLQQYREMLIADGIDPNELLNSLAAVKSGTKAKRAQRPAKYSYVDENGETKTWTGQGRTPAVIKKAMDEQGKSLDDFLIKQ

For series [4], the target named is T1, M. tuberculosis H-NS. This is another data set of the same source.
Series [5] deals with T2, E. coli H-NS. The source holds these as a separate data set.
Series [6] addresses T1, M. tuberculosis H-NS. This is another data set of the same source.

B1: dsDNA 70% GC (83 bp) (dsDNA)
DNA 1: GCGGTGGACGGCTGGGTCGGGTGGTGAGTGGGTTGCGATGGAGGTGGTGGGCTAGGGGGCTTAGGGGGGAGTCGGTGGTGG
DNA 2: CCACCACCGACTCCCCCCTAAGCCCCCTAGCCCACCACCTCCCATCGCCAACCCACTCACCACCCGACCCAGCCGTCCACCGC
On to B1, for which the binding signal with M. tuberculosis H-NS [1] is ~3 fold higher concentration for 50% binding than 40% GC dsDNA.

B2: dsDNA 40% GC (83 bp) (dsDNA)
DNA 1: GTACTATACGGTTGTACAGTGTTGTTAGTGAGTTGAAGATTGGAAGTAGTTTGCTAGGTGTCTTAGGAGAGAATCGTTAGTGT
DNA 2: ACACTAACGATTCTCTCCTAAGACACCTAGCAAACTACTTCCAATCTTCAACTCACTAACAACACTGTACAACCGTATAGATC
For B2, the binding result in the series with M. tuberculosis H-NS [2] is listed as “binds”.

B3: Holliday junction (HJ) (structured_DNA)
DNA 1: GCCGTGATCACCAATGCAGATTGACGAACCTTTGCCCACGT
DNA 2: GACGTGGGCAAAGGTTCGTCAATGGACTGACAGCTGCATGG
DNA 3: GCCATGCAGCTGTCAGTCCATTGTCATGCTAGGCCTACTGC
DNA 4: GGCAGTAGGCCTAGCATGACAATCTGCATTGGTGATCACGG
B3 returned a Kd in the series with M. tuberculosis H-NS [2] of approximately 32 nM. Further, in the series with E. coli H-NS [3], the binding result is listed as “binds”.

B4: DNA replication fork (structured_DNA)
DNA 1: GACGTGGGCAAAGGTTCGTCAATGGACTGACAGCTGCATGG
DNA 2: GCCATGCAGCTGTCAGTCCATTGTCATGCTAGGCCTACTGC
DNA 3: GCAGTAGGCCTAGCATGA
DNA 4: CGAACCTTTGCCCACGTC
In the series with M. tuberculosis H-NS [4], B4 displayed a binding signal of approximately 6 fold higher Kd than HJ. The binding result in the series with E. coli H-NS [5] was “binds”.

B5: Y-shaped junction (structured_DNA)
DNA 1: GACGTGGGCAAAGGTTCGTCAATGGACTGACAGCTGCATGG
DNA 2: GCCATGCAGCTGTCAGTCCATTGTCATGCTAGGCCTACTGC
B5 yielded a binding signal in the series with M. tuberculosis H-NS [6] of approximately 7 fold higher Kd than HJ.
